Results on five molecules are retold here after US20250154277A1 (CONCEPT TO MEDICINE BIOTECH, published 2025).

Assay [1] concerns the target T1, human 5T4 expressed on cells (human, UniProt Q13641 32-420).
T1 construct: whole, on cells; also called CHOK1-hu5T4; CHO-K1-expressing human 5T4
T1 sequence (looked up): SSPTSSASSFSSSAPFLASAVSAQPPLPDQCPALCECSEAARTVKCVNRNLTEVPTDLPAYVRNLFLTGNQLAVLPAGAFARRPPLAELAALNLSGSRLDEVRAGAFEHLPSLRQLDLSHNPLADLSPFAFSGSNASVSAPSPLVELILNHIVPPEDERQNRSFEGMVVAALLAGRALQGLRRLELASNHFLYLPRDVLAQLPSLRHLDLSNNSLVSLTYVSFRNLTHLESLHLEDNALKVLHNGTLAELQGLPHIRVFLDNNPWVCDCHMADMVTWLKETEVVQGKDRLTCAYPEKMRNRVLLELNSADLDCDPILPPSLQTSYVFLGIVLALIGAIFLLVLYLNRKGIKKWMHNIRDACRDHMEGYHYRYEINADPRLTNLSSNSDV
Put plainly: flow cytometry, CHOK1-hu5T4 cells. (In flow cytometry, cells or beads pass a laser one at a time.)

In assay [2] the target is T2, human 5T4-His protein (human, UniProt Q13641 32-355).
T2 construct: also called recombinant 5T4 protein (human 5T4-his tag); human 5T4 protein; not shown: His tag
T2 sequence (looked up): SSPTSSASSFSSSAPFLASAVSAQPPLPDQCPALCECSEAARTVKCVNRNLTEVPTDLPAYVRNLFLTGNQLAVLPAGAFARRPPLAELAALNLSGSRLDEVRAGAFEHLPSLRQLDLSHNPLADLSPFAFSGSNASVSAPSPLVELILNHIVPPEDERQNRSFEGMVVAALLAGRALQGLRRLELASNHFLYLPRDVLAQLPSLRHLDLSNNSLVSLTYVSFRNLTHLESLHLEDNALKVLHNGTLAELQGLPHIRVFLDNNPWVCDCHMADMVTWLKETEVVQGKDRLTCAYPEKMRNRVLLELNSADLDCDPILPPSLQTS
Put plainly: competitive ELISA, coated human 5T4, vs naptumomab-biotin.

In assay [3] the target is T1, human 5T4 expressed on cells. Kind of assay: flow cytometry, CHOK1-hu5T4 cells. This is another data set of the same source.
For assay [4], the target named is T2, human 5T4-His protein. Kind of assay: ELISA, coated human 5T4-His.
The target of assay [5] is T2, human 5T4-His protein. Kind of assay: competitive ELISA, coated human 5T4, vs naptumomab-biotin. This is another data set of the same source. For orientation: ELISA stands for enzyme-linked immunosorbent assay.
The target of assay [6] is T2, human 5T4-His protein. Described as above. This is another data set of the same source.
The target of assay [7] is T2, human 5T4-His protein. Described as above. This is another data set of the same source.
Assay [8] has as its target T1, human 5T4 expressed on cells. Put plainly: flow cytometry, HEK293-hu5T4 cells.
The target in assay [9] is T2, human 5T4-His protein. Kind of assay: ELISA, coated human 5T4-His. This is another data set of the same source.
For assay [10], the target named is T2, human 5T4-His protein. Kind of assay: ELISA, coated human 5T4-His. The protocol:
(§1) Briefly, microtiter plates were coated with human 5T4-His protein at 2 μg/ml in PBS, 30 μl/well at 4° C. overnight, then blocked with 5% PBS/Milk. Serial dilutions of antibodies were added to each well and incubated for 1 hour at room temperature. The plates were washed with PBS/Tween and then incubated with Goat Anti-Human IgG-HRP for 50 mins at room temperature. After washing, the plates were developed with TMB substrate and analyzed by spectrophotometer at OD 450 nm.
The source holds these as a separate data set.

Assay [11] deals with T1, human 5T4 expressed on cells. Put plainly: flow cytometry, CHOK1-hu5T4 cells. The method, then:
(§2) To evaluate the binding property of affinity maturated antibodies to surface 5T4, tested antibodies were analyzed for their binding to CHOK1-hu5T4, HEK293-hu5T4 or MCF-7 cells by FACS. […] After wash by FACS buffer, PE conjugated-anti-human IgG antibody was added to each well and incubated at 4° C. for 30 minutes. MFI of PE was evaluated by MACSQuant Analyzer 16.
The source holds these as a separate data set.

The target is the same in assay [12]. Kind of assay: flow cytometry, HEK293-hu5T4 cells. The protocol:
as §2
This is another data set of the same source.

Assay [13] deals with T2, human 5T4-His protein. Put plainly: SPR Biacore, Protein A capture. The protocol: The binding affinity of tested antibodies against recombinant 5T4 protein (human 5T4-his tag) was tested with Biacore using a capture method. The antibodies were captured using Protein A chip. A serial dilution of human 5T4-his tag protein was injected over captured antibody for 3 mins at a flow rate of 30 μl/min. The antigen was allowed to dissociate for 300 s. All the experiments were carried out on a Biacore T200. Data analysis was carried out using Biacore T200 evaluation software.
A general note: SPR reads the build-up and loss of mass on a sensor chip optically.

The target of assay [14] is T2, human 5T4-His protein. Kind of assay: ELISA, coated 5T4-His. The method, then: To evaluate the binding activity of 14G12 humanized antibodies to human 5T4, the 14G12 chimeric antibody along with 14G12 humanized mAbs were subjected to ELISA test.
Briefly, microtiter plates were coated with human 5T4-His protein at 1 μg/ml in PBS, 100 μl/well at 4° C. overnight, then blocked with […]. Serial dilutions of antibodies were added to each well and incubated for 1 hour at 37° C. The plates were washed with PBS/Tween and then incubated with Goat Anti-Human IgG-HRP for 30 mins at 37° C. After washing, the plates were developed with TMB substrate and analyzed by spectrophotometer at OD 450 nm. As shown in FIG. 10 and Table 6, most of the humanized antibodies bound to human 5T4 at high activity.

The target of assay [15] is T1, human 5T4 expressed on cells. Put plainly: flow cytometry, HEK293-hu5T4 cells. The protocol:
as §2
This is another data set of the same source.

For assay [16] the target is unchanged. Put plainly: flow cytometry, MCF-7 cells. The method, then:
as §2

For assay [17], the target named is T2, human 5T4-His protein. Kind of assay: SPR Biacore, Protein A capture. The method, then:
The binding of the 14G12 humanized antibodies to recombinant 5T4 protein (human 5T4-his tag) was tested with Biacore using a capture method. The mAbs were captured using Protein A chip. Serial dilution of human 5T4-his tag protein was injected over captured antibody for 120 s-180 s at a flow rate of 30 μl/min. The antigen was allowed to dissociate for 360 s-1000 s. All the experiments were carried out on a Biacore T200. Data analysis was carried out using the Biacore T200 evaluation software.
This is another data set of the same source.

The target in assay [18] is T2, human 5T4-His protein. Kind of assay: ELISA, coated human 5T4-His. The protocol: as §1
The source holds these as a separate data set.

Assay [19] has as its target T1, human 5T4 expressed on cells. Kind of assay: flow cytometry, CHOK1-hu5T4 cells. The protocol:
as §2
This is another data set of the same source.

In assay [20] the target is T2, human 5T4-His protein. Kind of assay: SPR Biacore, Protein A capture. This is another data set of the same source.
In assay [21] the target is T2, human 5T4-His protein. Kind of assay: competitive ELISA, coated human 5T4, vs naptumomab-biotin. This is another data set of the same source.
Another assay deals with T3, cynomolgus 5T4 protein (cynomolgus monkey, UniProt Q4R8Y9 35-355, limits assumed).
T3 construct: Coated protein in ELISA; the screening step names a cyno 5T4-His protein; also called cyno 5T4; recombinant cyno 5T4-His protein
T3 sequence (looked up): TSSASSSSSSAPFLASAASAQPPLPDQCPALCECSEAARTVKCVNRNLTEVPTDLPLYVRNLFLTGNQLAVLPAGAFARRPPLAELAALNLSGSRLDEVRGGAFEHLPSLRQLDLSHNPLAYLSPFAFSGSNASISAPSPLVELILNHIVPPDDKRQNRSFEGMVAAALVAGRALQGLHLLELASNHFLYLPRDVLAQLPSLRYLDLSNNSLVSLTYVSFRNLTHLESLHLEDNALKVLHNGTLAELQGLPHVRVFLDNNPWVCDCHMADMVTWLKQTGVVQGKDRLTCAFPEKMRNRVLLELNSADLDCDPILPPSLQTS
Kind of assay: ELISA, coated antigen.

In assay [22] the target is T2, human 5T4-His protein. Put plainly: ELISA, coated antigen.
For assay [23], the target named is T2, human 5T4-His protein. Kind of assay: SPR Biacore, Protein A capture. The protocol: The binding of the chimeric mAbs from these clones against recombinant 5T4 protein (human 5T4-his tag) was tested with Biacore using a capture method. The mAbs were captured using Protein A chip. A serial dilution of human 5T4-his tag protein was injected over captured antibody for 2-3 mins at a flow rate of 30 μl/min. The antigen was allowed to dissociate for 360-1000 s. All the experiments were carried out on a Biacore T200. Data analysis was carried out using Biacore T200 evaluation software.
The source holds these as a separate data set.

Numbering of substitutions follows the chain as printed. Like-named read-outs stand apart in the source and are kept apart here.

As for “naptumomab (antibody portion of naptumomab (NeoTX) that targets 5T4)”, the EC50 (read off the curve) (commonly the concentration giving half of the maximal effect) was 2 nM in [1]; 1 nM in [3]; 0.1 nM with human 5T4-His protein [4]; 2 nM in assay [8]; 0.2 nM with human 5T4-His protein [9]. The IC50 (read off the curve) in the assay with human 5T4-His protein [2] is 6 nM; with human 5T4-His protein [5], 3 nM; in the assay with human 5T4-His protein [6], 4 nM; in the assay with human 5T4-His protein [7], 5 nM.

B1: Hu14G12-28 (antibody, V domains shown)
VH: QVQLVQSGAEVKKPGASVKVSCKASGYAFSSSWMNWVRQAPGQGLEWMGRIYREDGHTNYNGKFKGRVTMTADKSITTAYMELSRLRSDDTAVYYCANGGAMDYWGQGTLVTVSS
VL: DIQMTQSPSSLSASVGDRVTITCRASQDISNYLNWYQQKPGKAPKLLIYYTSRLHSGVPSRFSGSGSGTDYTFTISSLQPEDIATYFCQQDNTLPWTFGGGTKVEIK
notes: humanized; also called parental Hu14G12-28 antibody
For B1, the “EC50 (read off the curve)” value with human 5T4-His protein [10] is about 0.1 nM; in assay [11], about 2 nM; in assay [12], about 2 nM; in [15], about 2 nM; in assay [16], about 0.2 nM; with human 5T4-His protein [18], about 0.2 nM. In addition, the “EC50 (read off the curve)” value in assay [19] was about 1 nM. For the same molecule, the Kd – broadly, the equilibrium constant for the complex coming apart – in the assay with human 5T4-His protein [13] was found to be 4.09 nM; with human 5T4-His protein [17] it was 2.42 nM. Moreover, the koff (as a rule, the first-order rate constant of dissociation) in the assay with human 5T4-His protein [13] amounted to 0.000738 s⁻¹; with human 5T4-His protein [17], 0.000714 s⁻¹. The values for the kon in the assay with human 5T4-His protein [13] and with human 5T4-His protein [17] were 180000 M⁻¹ s⁻¹ and 295000 M⁻¹ s⁻¹, respectively. Besides, the EC50 (usually the concentration needed to bring the measured effect to its halfway point) in the assay with human 5T4-His protein [14] was found to be 0.01 µg/mL.

B2: Hu14G12-28-88# (antibody, V domains shown)
VH: B1 VH
VL: B1 VL with Q89G, Q90N
For the molecule B2, the “EC50 (read off the curve)” value was about 2 nM in assay [11], about 2 nM in assay [12], about 0.3 nM in [16] and about 0.2 nM in the assay with human 5T4-His protein [18]. Moreover, the Kd with human 5T4-His protein [13] came to 0.433 nM. This molecule also gave a koff with human 5T4-His protein [13] of 8.28e-05 s⁻¹. Besides, the kon – broadly, the rate constant with which the complex forms – with human 5T4-His protein [13] was found to be 191000 M⁻¹ s⁻¹. In addition, the “fold increase of binding affinity against the parental Hu14G12-28” value with human 5T4-His protein [20] worked out at 9.45 fold.

B3: Hu14G12-28-108# (antibody, V domains shown)
VH: B1 VH
VL: B1 VL with Q89A, Q90N
As to B3, the “EC50 (read off the curve)” value in the assay with human 5T4-His protein [10] was about 0.1 nM; in assay [15], about 2 nM; in assay [16] it was about 0.3 nM; in [19], about 1 nM. The same molecule came in with a Kd with human 5T4-His protein [13] of 0.552 nM. The molecule also yielded a koff in the assay with human 5T4-His protein [13] of 0.000101 s⁻¹. Also, the kon with human 5T4-His protein [13] is 183000 M⁻¹ s⁻¹. The “fold increase of binding affinity against the parental Hu14G12-28” value with human 5T4-His protein [20] amounted to 7.41 fold.

B4: 113H5 chimeric antibody (antibody, V domains shown)
VH: DVQLQESGPGLVKPSQSLSLTCSVTGYSITSGYYWNWIRQFPGNKLEWMGYINSDGSNNYNPSLKNRISITRDTSKNQFFLKLNSVTTEDTATYYCAREEYDYWFAYWGQGTLVTVSA
VL: DIVMTQSQKFMSTSVGDRVSVTCKASQNVGTNVAWYQQKPGQSPKALIYSASNRYSGVPDRFTGSGFGTDFTLTISNVQSEDLTEYFCQQYNSYPYTFGGGTNLEIK
notes: chimeric mAb
In the case of B4, the “IC50 (read off the curve)” value in the assay with human 5T4-His protein [21] is about 6 nM. In addition, the EC50 with cynomolgus 5T4 protein was 0.82 nM. Further, the EC50 with human 5T4-His protein [22] stood at 0.52 nM. In the assay with human 5T4-His protein [23], this molecule showed a Kd of 0.552 nM, a koff of 0.000192 s⁻¹ and an on-rate (kon) of 348000 M⁻¹ s⁻¹.
